Source: the supplement of paper PMC9112550, “Optimization of the antimicrobial peptide Bac7 by deep mutational scanning” (BMC Biology, 2022)

test system: Escherichia coli TOP10; experiment: shrunken log2 fold change of peptide-encoding DNA abundance (4.5 h post-induction vs induction); higher = less antimicrobial activity (less host growth inhibition); details: time post-induction: 4.5 h; library: site-saturation at positions 5, 18, 19, 20
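Note: peptides expressed intracellularly from a pBAD plasmid library in pooled LB shake-flask culture, induced with 0.3% L-arabinose, DNA abundance read by NGS, three biological replicates, DESeq2 with apeglm shrinkage.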

Row | Sequence | shrunken log2 fold change
1 | RRIRLRPPRLPRPRPRPKYMPRP | -0.544
2 | RRIRLRPPRLPRPRPRPLCRPRP | -0.496
3 | RRIRLRPPRLPRPRPRPLCVPRP | 0.688
4 | RRIRLRPPRLPRPRPRPLDHPRP | -0.1
5 | RRIRLRPPRLPRPRPRPLEWPRP | 0.0509
6 | RRIRLRPPRLPRPRPRPLFDPRP | -0.148
7 | RRIRLRPPRLPRPRPRPLGQPRP | 0.0405
8 | RRIRLRPPRLPRPRPRPLIKPRP | -0.273
9 | RRIRLRPPRLPRPRPRPLISPRP | -0.506
10 | RRIRLRPPRLPRPRPRPLKNPRP | -0.295
11 | RRIRLRPPRLPRPRPRPLLGPRP | 0.0797
12 | RRIRLRPPRLPRPRPRPLLKPRP | -0.163
13 | RRIRLRPPRLPRPRPRPLMAPRP | -0.246
14 | RRIRLRPPRLPRPRPRPLMWPRP | 0.115
15 | RRIRLRPPRLPRPRPRPLPVPRP | 0.0348
16 | RRIRLRPPRLPRPRPRPLQYPRP | -0.316
17 | RRIRLRPPRLPRPRPRPLRDPRP | 0.356
18 | RRIRLRPPRLPRPRPRPLTLPRP | 0.134
19 | RRIRLRPPRLPRPRPRPLWEPRP | 0.697
20 | RRIRLRPPRLPRPRPRPLWNPRP | -0.228
21 | RRIRLRPPRLPRPRPRPMAHPRP | -0.944
22 | RRIRLRPPRLPRPRPRPMAVPRP | -0.0225
23 | RRIRLRPPRLPRPRPRPMDCPRP | -0.0117
24 | RRIRLRPPRLPRPRPRPMDFPRP | -0.0499
25 | RRIRLRPPRLPRPRPRPMDPPRP | 0.0507

Row | Sequence | shrunken log2 fold change
26 | RRIRLRPPRLPRPRPRPMEAPRP | -0.00122
27 | RRIRLRPPRLPRPRPRPMEGPRP | 0.0303
28 | RRIRLRPPRLPRPRPRPMEWPRP | -0.0102
29 | RRIRLRPPRLPRPRPRPMGTPRP | -0.0465
30 | RRIRLRPPRLPRPRPRPMGVPRP | -0.0231
31 | RRIRLRPPRLPRPRPRPMHNPRP | -0.429
32 | RRIRLRPPRLPRPRPRPMIVPRP | -0.199
33 | RRIRLRPPRLPRPRPRPMKKPRP | 0.0162
34 | RRIRLRPPRLPRPRPRPMKPPRP | -0.0332
35 | RRIRLRPPRLPRPRPRPMKSPRP | 0.00719
36 | RRIRLRPPRLPRPRPRPMLMPRP | -0.177
37 | RRIRLRPPRLPRPRPRPMLVPRP | -0.225
38 | RRIRLRPPRLPRPRPRPMMEPRP | 0.195
39 | RRIRLRPPRLPRPRPRPMMLPRP | -0.335
40 | RRIRLRPPRLPRPRPRPMMYPRP | -0.0922
41 | RRIRLRPPRLPRPRPRPMNCPRP | -0.507
42 | RRIRLRPPRLPRPRPRPMPCPRP | -0.12
43 | RRIRLRPPRLPRPRPRPMTDPRP | -0.189
44 | RRIRLRPPRLPRPRPRPMTMPRP | 0.024
45 | RRIRLRPPRLPRPRPRPMVEPRP | -0.0178
46 | RRIRLRPPRLPRPRPRPMWPPRP | -0.0364
47 | RRIRLRPPRLPRPRPRPNAHPRP | -0.154
48 | RRIRLRPPRLPRPRPRPNCNPRP | -0.535
49 | RRIRLRPPRLPRPRPRPNCRPRP | 0.00739
50 | RRIRLRPPRLPRPRPRPNDCPRP | 0.0412

Row | Sequence | shrunken log2 fold change
51 | RRIRLRPPRLPRPRPRPNENPRP | -0.189
52 | RRIRLRPPRLPRPRPRPNFIPRP | -0.228
53 | RRIRLRPPRLPRPRPRPNFMPRP | -0.117
54 | RRIRLRPPRLPRPRPRPNFNPRP | 0.597
55 | RRIRLRPPRLPRPRPRPNFSPRP | -0.00932
56 | RRIRLRPPRLPRPRPRPNFWPRP | 0.199
57 | RRIRLRPPRLPRPRPRPNGDPRP | -0.00192
58 | RRIRLRPPRLPRPRPRPNGGPRP | -0.01
59 | RRIRLRPPRLPRPRPRPNGWPRP | 0.044
60 | RRIRLRPPRLPRPRPRPNILPRP | -0.634
61 | RRIRLRPPRLPRPRPRPNIWPRP | -0.0307
62 | RRIRLRPPRLPRPRPRPNKIPRP | -0.243
63 | RRIRLRPPRLPRPRPRPNLIPRP | -0.117
64 | RRIRLRPPRLPRPRPRPNNRPRP | -0.79
65 | RRIRLRPPRLPRPRPRPNNVPRP | -0.395
66 | RRIRLRPPRLPRPRPRPNQDPRP | -0.0883
67 | RRIRLRPPRLPRPRPRPNRQPRP | -0.407
68 | RRIRLRPPRLPRPRPRPNRWPRP | 0.254
69 | RRIRLRPPRLPRPRPRPNSWPRP | -0.0901
70 | RRIRLRPPRLPRPRPRPNTEPRP | 0.019
71 | RRIRLRPPRLPRPRPRPNTMPRP | -0.501
72 | RRIRLRPPRLPRPRPRPNTYPRP | -0.522
73 | RRIRLRPPRLPRPRPRPNVRPRP | -0.00281
74 | RRIRLRPPRLPRPRPRPNYLPRP | -0.377
75 | RRIRLRPPRLPRPRPRPPCKPRP | 0.15

Row | Sequence | shrunken log2 fold change
76 | RRIRLRPPRLPRPRPRPPCRPRP | 0.0548
77 | RRIRLRPPRLPRPRPRPPFAPRP | 0.543
78 | RRIRLRPPRLPRPRPRPPFDPRP | 0.312
79 | RRIRLRPPRLPRPRPRPPFHPRP | -0.0331
80 | RRIRLRPPRLPRPRPRPPFWPRP | 0.308
81 | RRIRLRPPRLPRPRPRPPFYPRP | -0.185
82 | RRIRLRPPRLPRPRPRPPHEPRP | 0.269
83 | RRIRLRPPRLPRPRPRPPKEPRP | 0.00696
84 | RRIRLRPPRLPRPRPRPPLCPRP | 0.162
85 | RRIRLRPPRLPRPRPRPPLDPRP | 0.436
86 | RRIRLRPPRLPRPRPRPPLIPRP | -0.258
87 | RRIRLRPPRLPRPRPRPPLVPRP | 0.402
88 | RRIRLRPPRLPRPRPRPPMFPRP | -0.242
89 | RRIRLRPPRLPRPRPRPPNHPRP | -0.246
90 | RRIRLRPPRLPRPRPRPPNVPRP | 0.0883
91 | RRIRLRPPRLPRPRPRPPPFPRP | 0.791
92 | RRIRLRPPRLPRPRPRPPPNPRP | 1.18
93 | RRIRLRPPRLPRPRPRPPQVPRP | 0.162
94 | RRIRLRPPRLPRPRPRPPSSPRP | 1.86
95 | RRIRLRPPRLPRPRPRPPTGPRP | 0.146
96 | RRIRLRPPRLPRPRPRPPVGPRP | 1.42
97 | RRIRLRPPRLPRPRPRPPWHPRP | 0.193
98 | RRIRLRPPRLPRPRPRPPWKPRP | 0.153
99 | RRIRLRPPRLPRPRPRPPWVPRP | 0.344
100 | RRIRLRPPRLPRPRPRPQAMPRP | 0.00366

Row | Sequence | shrunken log2 fold change
101 | RRIRLRPPRLPRPRPRPQDYPRP | -0.31
102 | RRIRLRPPRLPRPRPRPQFTPRP | -0.324
103 | RRIRLRPPRLPRPRPRPQFWPRP | 0.099
104 | RRIRLRPPRLPRPRPRPQGCPRP | 0.0879
105 | RRIRLRPPRLPRPRPRPQGGPRP | 0.0226
106 | RRIRLRPPRLPRPRPRPQGWPRP | 0.495
107 | RRIRLRPPRLPRPRPRPQIHPRP | -0.154
108 | RRIRLRPPRLPRPRPRPQIIPRP | 0.0457
109 | RRIRLRPPRLPRPRPRPQKLPRP | -0.17
110 | RRIRLRPPRLPRPRPRPQKNPRP | -0.154
111 | RRIRLRPPRLPRPRPRPQKPPRP | -0.272
112 | RRIRLRPPRLPRPRPRPQMDPRP | -0.16
113 | RRIRLRPPRLPRPRPRPQNAPRP | 0.223
114 | RRIRLRPPRLPRPRPRPQNIPRP | -0.512
115 | RRIRLRPPRLPRPRPRPQPEPRP | 0.419
116 | RRIRLRPPRLPRPRPRPQPLPRP | 0.00386
117 | RRIRLRPPRLPRPRPRPQQGPRP | -0.0774
118 | RRIRLRPPRLPRPRPRPQRYPRP | -0.307
119 | RRIRLRPPRLPRPRPRPQTQPRP | 0.0159
120 | RRIRLRPPRLPRPRPRPQWDPRP | -0.00172
121 | RRIRLRPPRLPRPRPRPQYLPRP | -0.0559
122 | RRIRLRPPRLPRPRPRPRCIPRP | -0.0325
123 | RRIRLRPPRLPRPRPRPRCLPRP | 0.18
124 | RRIRLRPPRLPRPRPRPRDYPRP | -0.00546
125 | RRIRLRPPRLPRPRPRPREAPRP | 0.641

Row | Sequence | shrunken log2 fold change
126 | RRIRLRPPRLPRPRPRPREIPRP | 0.0725
127 | RRIRLRPPRLPRPRPRPRGDPRP | 0.553
128 | RRIRLRPPRLPRPRPRPRGLPRP | 0.146
129 | RRIRLRPPRLPRPRPRPRGTPRP | 0.0155
130 | RRIRLRPPRLPRPRPRPRHWPRP | 0.679
131 | RRIRLRPPRLPRPRPRPRIVPRP | -0.175
132 | RRIRLRPPRLPRPRPRPRKCPRP | 0.309
133 | RRIRLRPPRLPRPRPRPRLHPRP | -0.237
134 | RRIRLRPPRLPRPRPRPRMTPRP | 0.206
135 | RRIRLRPPRLPRPRPRPRNHPRP | -0.44
136 | RRIRLRPPRLPRPRPRPRNYPRP | -0.0808
137 | RRIRLRPPRLPRPRPRPRQHPRP | -0.0111
138 | RRIRLRPPRLPRPRPRPRQIPRP | 0.211
139 | RRIRLRPPRLPRPRPRPRQPPRP | 0.111
140 | RRIRLRPPRLPRPRPRPRRHPRP | 0.214
141 | RRIRLRPPRLPRPRPRPRRLPRP | 0.18
142 | RRIRLRPPRLPRPRPRPRRSPRP | -0.169
143 | RRIRLRPPRLPRPRPRPRVDPRP | -0.0238
144 | RRIRLRPPRLPRPRPRPRVLPRP | -0.132
145 | RRIRLRPPRLPRPRPRPRVTPRP | -0.243
146 | RRIRLRPPRLPRPRPRPRWRPRP | 0.463
147 | RRIRLRPPRLPRPRPRPRWTPRP | 0.404
148 | RRIRLRPPRLPRPRPRPRYEPRP | -0.286
149 | RRIRLRPPRLPRPRPRPRYGPRP | -0.0186
150 | RRIRLRPPRLPRPRPRPSCHPRP | -0.475
